Laboratory results: the supplement of paper PMC9112550, “Optimization of the antimicrobial peptide Bac7 by deep mutational scanning” (BMC Biology, 2022)

tested on: Escherichia coli TOP10; test: shrunken log2 fold change of peptide-encoding DNA abundance (4.5 h post-induction vs induction); higher = less antimicrobial activity (less host growth inhibition); conditions: time post-induction: 4.5 h; library: site-saturation at positions 5, 18, 19, 20
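Further: peptides expressed intracellularly from a pBAD plasmid library in pooled LB shake-flask culture, induced with 0.3% L-arabinose, DNA abundance read by NGS, three biological replicates, DESeq2 with apeglm shrinkage.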

| Sequence | shrunken log2 fold change |
| --- | --- |
| RRIRLRPPRLPRPRPRPKMCPRP | -0.0794 |
| RRIRLRPPRLPRPRPRPKMNPRP | -0.37 |
| RRIRLRPPRLPRPRPRPKMSPRP | -0.0245 |
| RRIRLRPPRLPRPRPRPKNRPRP | 0.177 |
| RRIRLRPPRLPRPRPRPKNYPRP | -0.458 |
| RRIRLRPPRLPRPRPRPKPQPRP | 0.212 |
| RRIRLRPPRLPRPRPRPKPVPRP | 0.165 |
| RRIRLRPPRLPRPRPRPKQDPRP | -0.199 |
| RRIRLRPPRLPRPRPRPKSGPRP | 0.143 |
| RRIRLRPPRLPRPRPRPKSIPRP | -0.189 |
| RRIRLRPPRLPRPRPRPKSPPRP | 0.0414 |
| RRIRLRPPRLPRPRPRPKTKPRP | -0.021 |
| RRIRLRPPRLPRPRPRPKTTPRP | 0.196 |
| RRIRLRPPRLPRPRPRPKVVPRP | -0.0761 |
| RRIRLRPPRLPRPRPRPKWSPRP | -0.171 |
| RRIRLRPPRLPRPRPRPKWWPRP | 0.396 |
| RRIRLRPPRLPRPRPRPKYPPRP | 0.0464 |
| RRIRLRPPRLPRPRPRPKYRPRP | 0.0356 |
| RRIRLRPPRLPRPRPRPLACPRP | -0.454 |
| RRIRLRPPRLPRPRPRPLCHPRP | -0.253 |
| RRIRLRPPRLPRPRPRPLCPPRP | -0.0651 |
| RRIRLRPPRLPRPRPRPLCQPRP | -0.125 |
| RRIRLRPPRLPRPRPRPLDDPRP | -0.144 |
| RRIRLRPPRLPRPRPRPLEDPRP | -0.076 |
| RRIRLRPPRLPRPRPRPLEIPRP | -0.0425 |

| Sequence | shrunken log2 fold change |
| --- | --- |
| RRIRLRPPRLPRPRPRPLGAPRP | 0.387 |
| RRIRLRPPRLPRPRPRPLGFPRP | 0.38 |
| RRIRLRPPRLPRPRPRPLGNPRP | 0.102 |
| RRIRLRPPRLPRPRPRPLHDPRP | -0.149 |
| RRIRLRPPRLPRPRPRPLICPRP | 0.128 |
| RRIRLRPPRLPRPRPRPLIVPRP | -0.131 |
| RRIRLRPPRLPRPRPRPLKIPRP | -0.221 |
| RRIRLRPPRLPRPRPRPLLIPRP | -0.514 |
| RRIRLRPPRLPRPRPRPLLMPRP | -0.136 |
| RRIRLRPPRLPRPRPRPLLYPRP | -0.326 |
| RRIRLRPPRLPRPRPRPLMSPRP | -0.0608 |
| RRIRLRPPRLPRPRPRPLMTPRP | -0.344 |
| RRIRLRPPRLPRPRPRPLQMPRP | -0.135 |
| RRIRLRPPRLPRPRPRPLQPPRP | 0.206 |
| RRIRLRPPRLPRPRPRPLRCPRP | -0.0152 |
| RRIRLRPPRLPRPRPRPLREPRP | 0.332 |
| RRIRLRPPRLPRPRPRPLSHPRP | 0.2 |
| RRIRLRPPRLPRPRPRPLTTPRP | -0.0027 |
| RRIRLRPPRLPRPRPRPLVKPRP | -0.00589 |
| RRIRLRPPRLPRPRPRPLYHPRP | -0.648 |
| RRIRLRPPRLPRPRPRPMCFPRP | -0.332 |
| RRIRLRPPRLPRPRPRPMCKPRP | 0.0258 |
| RRIRLRPPRLPRPRPRPMCNPRP | 0.107 |
| RRIRLRPPRLPRPRPRPMFIPRP | -0.734 |
| RRIRLRPPRLPRPRPRPMGCPRP | 0.031 |

| Sequence | shrunken log2 fold change |
| --- | --- |
| RRIRLRPPRLPRPRPRPMGNPRP | -0.147 |
| RRIRLRPPRLPRPRPRPMGYPRP | -0.126 |
| RRIRLRPPRLPRPRPRPMHSPRP | -0.13 |
| RRIRLRPPRLPRPRPRPMKFPRP | 0.0807 |
| RRIRLRPPRLPRPRPRPMNAPRP | -0.446 |
| RRIRLRPPRLPRPRPRPMPNPRP | -0.0177 |
| RRIRLRPPRLPRPRPRPMPWPRP | 0.276 |
| RRIRLRPPRLPRPRPRPMQFPRP | 0.179 |
| RRIRLRPPRLPRPRPRPMQGPRP | -0.0711 |
| RRIRLRPPRLPRPRPRPMQTPRP | 0.0393 |
| RRIRLRPPRLPRPRPRPMRHPRP | 0.188 |
| RRIRLRPPRLPRPRPRPMRTPRP | 0.3 |
| RRIRLRPPRLPRPRPRPMSTPRP | -0.302 |
| RRIRLRPPRLPRPRPRPMTHPRP | -0.22 |
| RRIRLRPPRLPRPRPRPMTYPRP | -0.0978 |
| RRIRLRPPRLPRPRPRPMVFPRP | 0.0182 |
| RRIRLRPPRLPRPRPRPMWDPRP | 0.0295 |
| RRIRLRPPRLPRPRPRPMYEPRP | 0.129 |
| RRIRLRPPRLPRPRPRPMYMPRP | -0.295 |
| RRIRLRPPRLPRPRPRPNAAPRP | -0.0536 |
| RRIRLRPPRLPRPRPRPNAKPRP | -0.0021 |
| RRIRLRPPRLPRPRPRPNCDPRP | -0.00298 |
| RRIRLRPPRLPRPRPRPNCFPRP | -0.0891 |
| RRIRLRPPRLPRPRPRPNDIPRP | -0.723 |
| RRIRLRPPRLPRPRPRPNDRPRP | -0.422 |

| Sequence | shrunken log2 fold change |
| --- | --- |
| RRIRLRPPRLPRPRPRPNDSPRP | -0.0215 |
| RRIRLRPPRLPRPRPRPNEDPRP | -0.132 |
| RRIRLRPPRLPRPRPRPNETPRP | -0.0172 |
| RRIRLRPPRLPRPRPRPNFAPRP | 0.0393 |
| RRIRLRPPRLPRPRPRPNFPPRP | -0.00674 |
| RRIRLRPPRLPRPRPRPNFRPRP | -0.195 |
| RRIRLRPPRLPRPRPRPNHEPRP | -0.0961 |
| RRIRLRPPRLPRPRPRPNHSPRP | 0.135 |
| RRIRLRPPRLPRPRPRPNIMPRP | -0.602 |
| RRIRLRPPRLPRPRPRPNIQPRP | -0.689 |
| RRIRLRPPRLPRPRPRPNKAPRP | -0.0163 |
| RRIRLRPPRLPRPRPRPNPIPRP | -0.237 |
| RRIRLRPPRLPRPRPRPNPQPRP | -0.2 |
| RRIRLRPPRLPRPRPRPNQPPRP | 0.0224 |
| RRIRLRPPRLPRPRPRPNQWPRP | -0.117 |
| RRIRLRPPRLPRPRPRPNRNPRP | -0.884 |
| RRIRLRPPRLPRPRPRPNTFPRP | -0.348 |
| RRIRLRPPRLPRPRPRPNWSPRP | -0.136 |
| RRIRLRPPRLPRPRPRPNWVPRP | -0.0131 |
| RRIRLRPPRLPRPRPRPNYCPRP | -0.31 |
| RRIRLRPPRLPRPRPRPNYQPRP | -0.773 |
| RRIRLRPPRLPRPRPRPNYRPRP | -0.571 |
| RRIRLRPPRLPRPRPRPPASPRP | 0.561 |
| RRIRLRPPRLPRPRPRPPCEPRP | 0.123 |
| RRIRLRPPRLPRPRPRPPDAPRP | 0.524 |

| Sequence | shrunken log2 fold change |
| --- | --- |
| RRIRLRPPRLPRPRPRPPEAPRP | 0.255 |
| RRIRLRPPRLPRPRPRPPEEPRP | 0.0505 |
| RRIRLRPPRLPRPRPRPPEGPRP | 0.662 |
| RRIRLRPPRLPRPRPRPPEKPRP | 0.0964 |
| RRIRLRPPRLPRPRPRPPGCPRP | 0.558 |
| RRIRLRPPRLPRPRPRPPHKPRP | -0.113 |
| RRIRLRPPRLPRPRPRPPHQPRP | 0.168 |
| RRIRLRPPRLPRPRPRPPIAPRP | 0.192 |
| RRIRLRPPRLPRPRPRPPICPRP | -0.0611 |
| RRIRLRPPRLPRPRPRPPIDPRP | 0.13 |
| RRIRLRPPRLPRPRPRPPIIPRP | -0.195 |
| RRIRLRPPRLPRPRPRPPILPRP | -0.287 |
| RRIRLRPPRLPRPRPRPPKLPRP | 0.252 |
| RRIRLRPPRLPRPRPRPPLEPRP | 0.752 |
| RRIRLRPPRLPRPRPRPPPEPRP | 1.35 |
| RRIRLRPPRLPRPRPRPPSMPRP | -0.127 |
| RRIRLRPPRLPRPRPRPPTIPRP | 0.168 |
| RRIRLRPPRLPRPRPRPPTSPRP | 0.493 |
| RRIRLRPPRLPRPRPRPPVPPRP | 0.374 |
| RRIRLRPPRLPRPRPRPPVSPRP | 0.11 |
| RRIRLRPPRLPRPRPRPPWCPRP | 0.402 |
| RRIRLRPPRLPRPRPRPPYQPRP | -0.0294 |
| RRIRLRPPRLPRPRPRPQASPRP | 0.0594 |
| RRIRLRPPRLPRPRPRPQETPRP | 0.0529 |
| RRIRLRPPRLPRPRPRPQFFPRP | 0.551 |

| Sequence | shrunken log2 fold change |
| --- | --- |
| RRIRLRPPRLPRPRPRPQKVPRP | 0.0989 |
| RRIRLRPPRLPRPRPRPQKYPRP | -0.442 |
| RRIRLRPPRLPRPRPRPQLTPRP | 0.103 |
| RRIRLRPPRLPRPRPRPQQTPRP | 0.168 |
| RRIRLRPPRLPRPRPRPQRHPRP | -0.0803 |
| RRIRLRPPRLPRPRPRPQSIPRP | -0.0983 |
| RRIRLRPPRLPRPRPRPQTMPRP | -0.0345 |
| RRIRLRPPRLPRPRPRPQVDPRP | -0.136 |
| RRIRLRPPRLPRPRPRPQVNPRP | -0.141 |
| RRIRLRPPRLPRPRPRPQYAPRP | -0.0369 |
| RRIRLRPPRLPRPRPRPQYKPRP | -1.05 |
| RRIRLRPPRLPRPRPRPRAFPRP | 0.25 |
| RRIRLRPPRLPRPRPRPRAYPRP | 0.0155 |
| RRIRLRPPRLPRPRPRPRDRPRP | 3.43 |
| RRIRLRPPRLPRPRPRPRECPRP | -0.104 |
| RRIRLRPPRLPRPRPRPRELPRP | 0.765 |
| RRIRLRPPRLPRPRPRPRGPPRP | 0.865 |
| RRIRLRPPRLPRPRPRPRHEPRP | 0.055 |
| RRIRLRPPRLPRPRPRPRIEPRP | -0.0339 |
| RRIRLRPPRLPRPRPRPRIQPRP | 0.239 |
| RRIRLRPPRLPRPRPRPRKRPRP | 0.314 |
| RRIRLRPPRLPRPRPRPRNNPRP | 0.019 |
| RRIRLRPPRLPRPRPRPRPEPRP | 0.799 |
| RRIRLRPPRLPRPRPRPRQKPRP | 0.154 |
| RRIRLRPPRLPRPRPRPRQLPRP | 0.153 |
